The labels stand for the following.
B1: Ribonuclease, P00648 (parent)
chain: MMKMEGIALKKRLSWISVCLLVLVSAAGMLFSTAAKTETSSHKAHTEAQVINTFDGVADYLQTYHKLPDNYITKSEAQALGWVASKGNLADVAPGKSIGGDIFSNREGKLPGKSGRTWREADINYTSGFRNSDRILYSSDWLIYKTTDHYQTFTKIR

Variants of B1 are the subject of the data set. The following applies: Bacillus amyloliquefaciens; pH 6.3; 25 °C; Urea; Fluorescence; MES 450 mM; reversible: yes; structure 1BNI; whole UniProt chain shown.

With MMKMEGIALKKRLSWISVCLLVLVSAAGMLFSTAAKTETSSHKAHTEAQVINTFDGVADYLQTYHKLPDNYITKSEAQCLGWVASKGNLADVAPGKSIGGDIFSNREGKLPGKSGRTWREADINYTSGFRNSDRILYSSDWLIYKTTDHYQTFTKIR [A79C], the “ddG of mutation (higher = less stable)” value is 1.85 kcal/mol, the denaturant m value stood at 1.71 kcal/mol/M, the “denaturant midpoint (higher = more stable)” value (“denaturant midpoint” below) amounted to 4 M and the unfolding free energy was found to be 6.98 kcal/mol.
The corresponding values for MMKMEGIALKKRLSWISVCLLVLVSAAGMLFSTAAKTETSSHKAHTEAQVINTFDGVADYLQTYHKLPDNYITKSEAQSLGWVASKGNLADVAPGKSIGGDIFSNREGKLPGKSGRTWREADINYTSGFRNSDRILYSSDWLIYKTTDHYQTFTKIR [A79S] are 0.16 kcal/mol, 1.98 kcal/mol/M, 4.3 M and 8.67 kcal/mol.
MMKMEGIALKKRLSWISVCLLVLVSAAGMLFSTAAKTETSSHKAHTEAQVINTFDGVADYLQTYHKLPDNYITKSEAQYLGWVASKGNLADVAPGKSIGGDIFSNREGKLPGKSGRTWREADINYTSGFRNSDRILYSSDWLIYKTTDHYQTFTKIR [A79Y]: the “ddG of mutation (higher = less stable)” value is 0.7 kcal/mol, the denaturant m value amounted to 1.95 kcal/mol/M, the “denaturant midpoint” value was determined as 4.1 M and the unfolding free energy is 8.13 kcal/mol.
For MMKMEGIALKKRLSWISVCLLVLVSAAGMLFSTAAKTETSSHKAHTEAQVINTFDGVADYLQTYHKLPDNYITKSEAQGLGWVASKGNLADVAPGKSIGGDIFSNREGKLPGKSGRTWREADINYTSGFRNSDRILYSSDWLIYKTTDHYQTFTKIR [A79G] the same measures were 0.65 kcal/mol, 1.98 kcal/mol/M, 4.1 M and 8.18 kcal/mol.
The corresponding values for MMKMEGIALKKRLSWISVCLLVLVSAAGMLFSTAAKTETSSHKAHTEAQVINTFDGVADYLQTYHKLPDNYITKSEAQMLGWVASKGNLADVAPGKSIGGDIFSNREGKLPGKSGRTWREADINYTSGFRNSDRILYSSDWLIYKTTDHYQTFTKIR [A79M] are 0.08 kcal/mol, 1.97 kcal/mol/M, 4.4 M and 8.75 kcal/mol.
The corresponding values for MMKMEGIALKKRLSWISVCLLVLVSAAGMLFSTAAKTETSSHKAHTEAQVINTFDGVADYLQTYHKLPDNYITKSEAQNLGWVASKGNLADVAPGKSIGGDIFSNREGKLPGKSGRTWREADINYTSGFRNSDRILYSSDWLIYKTTDHYQTFTKIR [A79N] are 0.33 kcal/mol, 2 kcal/mol/M, 4.2 M and 8.5 kcal/mol.
MMKMEGIALKKRLSWISVCLLVLVSAAGMLFSTAAKTETSSHKAHTEAQVINTFDGVADYLQTYHKLPDNYITKSEAQKLGWVASKGNLADVAPGKSIGGDIFSNREGKLPGKSGRTWREADINYTSGFRNSDRILYSSDWLIYKTTDHYQTFTKIR [A79K]: the “ddG of mutation (higher = less stable)” value stood at 0.1 kcal/mol, the denaturant m value is 1.94 kcal/mol/M, the “denaturant midpoint” value amounted to 4.5 M and the unfolding free energy was 8.73 kcal/mol.
For MMKMEGIALKKRLSWISVCLLVLVSAAGMLFSTAAKTETSSHKAHTEAQVINTFDGVADYLQTYHKLPDNYITKSEAQELGWVASKGNLADVAPGKSIGGDIFSNREGKLPGKSGRTWREADINYTSGFRNSDRILYSSDWLIYKTTDHYQTFTKIR [A79E] the same measures were -0.13 kcal/mol, 2.08 kcal/mol/M, 4.3 M and 8.96 kcal/mol.
Turning to MMKMEGIALKKRLSWISVCLLVLVSAAGMLFSTAAKTETSSHKAHTEAQVINTFDGVADYLQTYHKLPDNYITKSEAQVLGWVASKGNLADVAPGKSIGGDIFSNREGKLPGKSGRTWREADINYTSGFRNSDRILYSSDWLIYKTTDHYQTFTKIR [A79V], the “ddG of mutation (higher = less stable)” value was 0.34 kcal/mol, the denaturant m value was determined as 2.05 kcal/mol/M, the “denaturant midpoint” value was determined as 4.1 M and the unfolding free energy came to 8.49 kcal/mol.
Turning to MMKMEGIALKKRLSWISVCLLVLVSAAGMLFSTAAKTETSSHKAHTEAQVINTFDGVADYLQTYHKLPDNYITKSEAQQLGWVASKGNLADVAPGKSIGGDIFSNREGKLPGKSGRTWREADINYTSGFRNSDRILYSSDWLIYKTTDHYQTFTKIR [A79Q], the “ddG of mutation (higher = less stable)” value was 0.35 kcal/mol, the denaturant m value came to 1.95 kcal/mol/M, the “denaturant midpoint” value stood at 4.3 M and the unfolding free energy is 8.48 kcal/mol.
For the variant MMKMEGIALKKRLSWISVCLLVLVSAAGMLFSTAAKTETSSHKAHTEAQVINTFDGVADYLQTYHKLPDNYITKSEAQDLGWVASKGNLADVAPGKSIGGDIFSNREGKLPGKSGRTWREADINYTSGFRNSDRILYSSDWLIYKTTDHYQTFTKIR [A79D], the “ddG of mutation (higher = less stable)” value stood at 0.41 kcal/mol, the denaturant m value turned out to be 1.99 kcal/mol/M, the “denaturant midpoint” value is 4.2 M and the unfolding free energy stood at 8.42 kcal/mol.
For MMKMEGIALKKRLSWISVCLLVLVSAAGMLFSTAAKTETSSHKAHTEAQVINTFDGVADYLQTYHKLPDNYITKSEAQFLGWVASKGNLADVAPGKSIGGDIFSNREGKLPGKSGRTWREADINYTSGFRNSDRILYSSDWLIYKTTDHYQTFTKIR [A79F] the same measures were 0.43 kcal/mol, 1.98 kcal/mol/M, 4.2 M and 8.4 kcal/mol.
For MMKMEGIALKKRLSWISVCLLVLVSAAGMLFSTAAKTETSSHKAHTEAQVINTFDGVADYLQTYHKLPDNYITKSEAQRLGWVASKGNLADVAPGKSIGGDIFSNREGKLPGKSGRTWREADINYTSGFRNSDRILYSSDWLIYKTTDHYQTFTKIR [A79R] the same measures were 0.2 kcal/mol, 1.91 kcal/mol/M, 4.5 M and 8.63 kcal/mol.
On to MMKMEGIALKKRLSWISVCLLVLVSAAGMLFSTAAKTETSSHKAHTEAQVINTFDGVADYLQTYHKLPDNYITKSEAQHLGWVASKGNLADVAPGKSIGGDIFSNREGKLPGKSGRTWREADINYTSGFRNSDRILYSSDWLIYKTTDHYQTFTKIR [A79H], for which the “ddG of mutation (higher = less stable)” value was 0.7 kcal/mol, the denaturant m value amounted to 1.94 kcal/mol/M, the “denaturant midpoint” value was 4.1 M and the unfolding free energy stood at 8.13 kcal/mol.
For MMKMEGIALKKRLSWISVCLLVLVSAAGMLFSTAAKTETSSHKAHTEAQVINTFDGVADYLQTYHKLPDNYITKSEAQPLGWVASKGNLADVAPGKSIGGDIFSNREGKLPGKSGRTWREADINYTSGFRNSDRILYSSDWLIYKTTDHYQTFTKIR [A79P] the same measures were 4.12 kcal/mol, 1.89 kcal/mol/M, 2.4 M and 4.71 kcal/mol.
The corresponding values for MMKMEGIALKKRLSWISVCLLVLVSAAGMLFSTAAKTETSSHKAHTEAQVINTFDGVADYLQTYHKLPDNYITKSEAQLLGWVASKGNLADVAPGKSIGGDIFSNREGKLPGKSGRTWREADINYTSGFRNSDRILYSSDWLIYKTTDHYQTFTKIR [A79L] are -0.08 kcal/mol, 2.02 kcal/mol/M, 4.4 M and 8.91 kcal/mol.
For MMKMEGIALKKRLSWISVCLLVLVSAAGMLFSTAAKTETSSHKAHTEAQVINTFDGVADYLQTYHKLPDNYITKSEAQWLGWVASKGNLADVAPGKSIGGDIFSNREGKLPGKSGRTWREADINYTSGFRNSDRILYSSDWLIYKTTDHYQTFTKIR [A79W] the same measures were 1.14 kcal/mol, 1.88 kcal/mol/M, 4 M and 7.69 kcal/mol.

(Values after FireProtDB (doi:10.1016/0022-2836(92)90907-2).)
